Reference: patent US20100136061A1 (LA JOLLA INSTITUTE FOR ALLERGY AND IMMUNOLOGY, published 2010)
Numbering of substitutions follows the chain as printed.

T1: Heterotrimeric human LIGHT 32L-214E/32S-214K (combination of LIGHT-S32L and LIGHT-E214K subunits) expressed … (human, UniProt O43557 1-240; O43557 1-240)
T1 construct: Both polymorphic forms co-expressed in EL4 cells; also called combination of LIGHT-E214K and LIGHT-S32L
T1 chain 1: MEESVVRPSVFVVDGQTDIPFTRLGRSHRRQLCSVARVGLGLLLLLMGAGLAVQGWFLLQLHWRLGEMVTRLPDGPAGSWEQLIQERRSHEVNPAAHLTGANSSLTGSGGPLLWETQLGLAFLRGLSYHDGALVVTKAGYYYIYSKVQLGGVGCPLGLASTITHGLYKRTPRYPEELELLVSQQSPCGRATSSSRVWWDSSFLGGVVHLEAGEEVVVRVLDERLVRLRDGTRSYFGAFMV
T1 chain 2: T1 chain 1 with L32S, E214K

B1: DcR3-Fc (human Decoy Receptor 3 Fc fusion) (Fc fusion, UniProt O95407 30-300, looked up)
chain: VAETPTYPWRDAETGERLVCAQCPPGTFVQRPCRRDSPTTCGPCPPRHYTQFWNYLERCRYCNVLCGEREEEARACHATHNRACRCRTGFFAHAGFCLEHASCPPGAGVIAPGTPSQNTQCQPCPPGTFSASSSSSEQCQPHRNCTALGLALNVPGSSSHDTLCTSCTGFPLSTRVPGAEECERAVIDFVAFQDISIKRLQRLLQALEAPEGWGPTPRAGRAALQLKLRRRLTELLGAQDGALLVRLLQALRVARMPGLERSVRERFLPVH
notes: also called human DcR3; not shown: Fc part
B2: Full Length Human LIGHT, predominant form (32S-214E), expressed on EL4 cells (ligand)
chain: T1 chain 1 with L32S
notes: Stably expressed on mouse EL4 thymoma cells by retroviral transduction; also called p30 polypeptide; TNFSF-14

Experiments:
[1] = target: T1, Heterotrimeric human LIGHT …; experiment: competition flow cytometry, graded DcR3-Fc against constant LTβR-Fc on LIGHT expressing EL4 cells
Method: (§1) FIGS. 11A-11B. Competition binding assay for LTβR-Fc to LIGHT expressing EL4 cells in the presence of DcR3. […] Specific LTβR-Fc binding to the LIGHT expressing EL4 cells was detected with an anti-LTβR monoclonal antibody (BD-A8). (B) IC50 values were calculated by nonlinear regression analysis using Prism GraphPad (v4; San Diego, USA).

[2] = target: B1; experiment: as above
Method: as §1

Binder	IC50 ratio against the predominant form of LIGHT (SEQ ID NO:1) [1] [times]	binding result [2]
B1	~2.5	
B2		binds
